In series [1] the test system is T1, CRISPR nuclease variant D535G D535G (synthetic construct).
T1 sequence: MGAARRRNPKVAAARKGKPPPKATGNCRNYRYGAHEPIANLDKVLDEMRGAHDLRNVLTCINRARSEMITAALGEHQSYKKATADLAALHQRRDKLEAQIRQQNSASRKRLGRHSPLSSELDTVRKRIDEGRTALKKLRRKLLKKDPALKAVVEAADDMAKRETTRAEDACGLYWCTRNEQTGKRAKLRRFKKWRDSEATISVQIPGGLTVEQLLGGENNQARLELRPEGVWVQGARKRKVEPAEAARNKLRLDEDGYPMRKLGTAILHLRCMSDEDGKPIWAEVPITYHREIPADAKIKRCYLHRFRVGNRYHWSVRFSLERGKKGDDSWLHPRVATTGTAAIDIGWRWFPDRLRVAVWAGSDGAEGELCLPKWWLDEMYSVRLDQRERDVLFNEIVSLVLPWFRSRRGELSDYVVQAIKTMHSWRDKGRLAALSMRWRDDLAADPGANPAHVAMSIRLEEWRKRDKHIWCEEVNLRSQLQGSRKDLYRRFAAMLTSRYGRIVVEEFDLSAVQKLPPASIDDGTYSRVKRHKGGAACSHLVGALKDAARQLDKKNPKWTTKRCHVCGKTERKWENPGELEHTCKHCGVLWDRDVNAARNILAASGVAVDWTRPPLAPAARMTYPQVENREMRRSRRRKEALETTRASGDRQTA
As to the kind of experiment: cell_activity. The conditions noted are these: PAM 5'-GCTG-3'; HEK293T; averaged over AAVS1, VEGFA, EMX1 targets.

In series [2] the test system is T2, CRISPR nuclease variant L580G,A512R L580G,A512R (synthetic construct).
T2 sequence: T1 sequence with A512R, G535D, L580G
As to the kind of experiment: cell_activity. The settings on record: PAM 5'-GCTG-3'; HEK293T; averaged over AAVS1, VEGFA, EMX1 targets.

Data on 1 sequence can be found in patent US20230235304.

Residue numbers refer to the chain shown, from its start.

Consider “GGUCCCAUCGGAACGGGUUGUGGUUCCGACGGAGGGAUACAUUGGUGGGG / GGAGGGATACATTGGTGGGG / CCCCACCAATGTATCCCTCC [AAVS1 crRNA (Table 5) ; AAVS1 target (Table 5)]”, for which the binding signal (fold indels vs WT) amounted to 3.57 in series [1] and 3.75 in series [2].
